Test results as given in patent US20240358849A1 (SUZHOU FUSE BIOSCIENCES, published 2024).
Residue numbers refer to the chain shown, from its start. In names and notes the source's numbering stands.

Columns and labels:
[1] = target: Fc receptor CD64, Avi-tagged (UniProt P12314); assay: BLI, Avi-tagged receptor on streptavidin sensor; IgG complexed with TNFα
[2] = target: T1, human Fibroblast Activation Protein (FAP), soluble antigen (human, UniProt Q12884 26-760, biotinylated when immobilized on streptavidin sensors); assay: BLI per 6.1.3, human FAP;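 note: biolayer interferometry with immobilized antigen on sensors, antibody association up to 240 s then dissociation up to 420 s, reference-subtracted, global 1:1 fit with unlinked Rmax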
T1 construct: also called hFAP; biotinylated FAP

[3] = target: T1, human Fibroblast Activation Protein …; assay: BLI; Table 11, antibody variants (Fab/scFv)
[4] = target: T1, human Fibroblast Activation Protein …; assay: BLI (Gator), biotinylated FAP on streptavidin sensor
[5] = target: T2, human interleukin-2 (IL-2), wild type (human, UniProt P60568 21-153, biotinylated when immobilized); assay: BLI; Table 11 (N.B. = no detectable binding)
T2 construct: also called biotinylated IL-2; IL2 WT

[6] = target: T3, IL-2hex, mutant human IL-2 (deltaA1/T3A/F42A/Y45A/L72G/C125S) (human, UniProt P60568 22-153); assay: not stated (legend of FIG. 7B)
T3 chain: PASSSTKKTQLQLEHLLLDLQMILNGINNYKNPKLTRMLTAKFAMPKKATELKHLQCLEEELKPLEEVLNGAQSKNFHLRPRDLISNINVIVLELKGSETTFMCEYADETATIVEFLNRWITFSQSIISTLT

[7] = target: T4, human FAP expressed on cells (HEK 293T-hFAP-E5; ExpiCHO-hFAP) (human, UniProt Q12884 1-760); assay: flow cytometry, 1 µg/mL antibody
T4 construct: hFAP expression vector Sino Biologics HG10464-UT; also called hFAP expressing cells

[8] = target: T1, human Fibroblast Activation Protein …; assay: not stated (legend of FIG. 13A)
[9] = target: human FAP expressed on cells (HEK 293T-hFAP-E5; ExpiCHO-hFAP) (human) (UniProt Q12884); assay: cell-based or functional assay
[10] = target: T3, IL-2hex, mutant human IL-2 …; assay: cell-based or functional assay
[11] = target: T4, human FAP expressed on cells (HEK …); assay: cell-based or functional assay
[12] = target: T1, human Fibroblast Activation Protein …; assay: Affinity (nM), Table 13B
[13] = target: T3, IL-2hex, mutant human IL-2 …; assay: Affinity (nM), Table 13B
[14] = target: T3, IL-2hex, mutant human IL-2 …; assay: BLI per 6.1.3; column head IL-2 KD
[15] = target: T1, human Fibroblast Activation Protein …; assay: not stated (legend of FIG. 18B)
[16] = target: T1, human Fibroblast Activation Protein …; assay: BLI per 6.1.3
[17] = target: T1, human Fibroblast Activation Protein …; assay: bio-layer interferometry; the legend paragraph 249 gives the pair as B10 and FAP; which of the two is loaded on the sensor is not told
[18] = target: T3, IL-2hex, mutant human IL-2 …; assay: not stated (legend of FIG. 7C)
[19] = target: T1, human Fibroblast Activation Protein …; assay: BLI; Table 11, single domain

T2 sequence (P60568 21-153): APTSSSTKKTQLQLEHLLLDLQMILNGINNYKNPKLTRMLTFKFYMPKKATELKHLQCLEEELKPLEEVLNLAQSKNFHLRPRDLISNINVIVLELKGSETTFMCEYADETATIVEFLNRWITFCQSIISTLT
Fc receptor CD64, Avi-tagged, sequence (P12314 16-288 limits assumed): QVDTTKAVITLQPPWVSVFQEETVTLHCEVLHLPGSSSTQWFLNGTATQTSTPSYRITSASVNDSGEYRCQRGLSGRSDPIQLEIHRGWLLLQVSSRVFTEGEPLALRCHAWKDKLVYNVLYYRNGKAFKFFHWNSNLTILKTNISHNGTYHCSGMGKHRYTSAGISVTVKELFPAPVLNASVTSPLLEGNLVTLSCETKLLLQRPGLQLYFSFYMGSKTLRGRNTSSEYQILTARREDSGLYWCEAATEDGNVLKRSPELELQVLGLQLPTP

**Q.** “Certolizumab IgG, wild-type IgG1 Fc (antibody)” was tested. Which CD64 Binding (% of wild-type Certolizumab-IgG1) [1] did it give?
**A.** Its CD64 Binding (% of wild-type Certolizumab-IgG1) is 100%.

B1: anti-FAP antibody 872-5 (antibody, V domains shown)
VH: EVQLVESGGGLVQPGGSLRLSCAASGFTFRGYIMSWVRQAPGKGLEWVSWISPEGSRTGYADSVKGRFTISRDNSKNTLYLQMNSLRAEDTAVYYCARLQYGTWFDYWGQGTLVTVSS
VL: DIQMTQSPSSLSASVGDRVTITCRASQSISSYLNWYQQKPGKAPKLLIYAASSLQSGVPSRFSGSGSGTDFTLTISSLQPEDFATYYCQQATLLLPTFGQGTKVEIKR
notes: monovalent Fab-Fc (knob-in-hole) for KD per 6.1.3; also called IgG 5; FAP5
**Q.** Which Kd [2] does the source give for B1 here?
**A.** Its Kd is 7.3 nM.

**Q.** And the koff [2]?
**A.** Its koff is 0.00201 s⁻¹.

**Q.** What about the kon [2] of the same molecule?
**A.** The kon was 277000 M⁻¹ s⁻¹.

**Q.** What about the Kd [3] of the same molecule?
**A.** Its Kd is 7 nM.

**Q.** What about the Kd [4] of the same molecule?
**A.** The Kd was 6.6 nM.

**Q.** What about the koff [4] of the same molecule?
**A.** Its koff is 0.0028 s⁻¹.

**Q.** And the kon [4]?
**A.** Its kon is 420000 M⁻¹ s⁻¹.

**Q.** Does B1 bind [5]?
**A.** Result: no binding

B2: two-in-one antibody D047 (bispecific antibody, V domains shown)
VH: EVQLVESGGGLVQPGGSLRLSCAASGFTFHYFSMSWVRQAPGKGLEWVSSISPTYGTTDYADSVKGRFTISRDNSKNTLYLQMNSLRAEDTAVYYCARLLYGTWFDYWGQGTLVTVSS
VL: B1 VL with S28G, S30K, S31N, A91G, T92S, L93Y, L95Q
notes: Fab in FB-476
**Q.** Which results are given for B2?
**A.** Kd [6]: ~20 nM; binding result [7]: binds

B3: scFv5, scFv derived from antibody 872-5 (scFv, V domains shown)
VH: B1 VH
VL: B1 VL
notes: Single chain; also called scFv872-5
**Q.** B3 was tested. Which Kd [8] did it give?
**A.** Its Kd is about 5 nM.

B4: immunoconjugate of configuration 3 with IL-2 polypeptide, D002 Fab and 872-70 scFv (Fc fusion, part only; not given: CH1, Fc subunits, linkers, part only)
chain, part: EVQLVESGGGLVQPGGSLRLSCAASGFTFSRYSMSWVRQAPGKGLEWVSYITSTDGTTDYADSVKGRFTISRDNSKNTLYLQMNSLRAEDTAVYYCARSQYGRYYSPDYYFDYWGQGTLVTVSSDIQMTQSPSSLSASVGDRVTITCRASQSISSYLNWYQQKPGKAPKLLIYAASSLQSGVPSRFSGSGSGTDFTLTISSLQPEDFATYYCQQSRTSPYTFGQGTKVEIKRTVAPASSSTKKTQLQLEHLLLDLQMILNGINNYKNPKLTRMLTAKFAMPKKATELKHLQCLEEELKPLEEVLNGAQSKNFHLRPRDLISNINVIVLELKGSETTFMCEYADETATIVEFLNRWITFSQSIISTLT
heavy, part: EVQLVESGGGLVQPGGSLRLSCAASGFTFSRYSMSWVRQAPGKGLEWVSDISSYSTTYYADSVKGRFTISRDNSKNTLYLQMNSLRAEDTAVYYCARSQYGRYYSPDYYFDYWGQGTLVTVSS
light, part: DIQMTQSPSSLSASVGDRVTITCRASQSIGNSLNWYQQKPGKAPKLLIYAASSLQSGVPSRFSGSGSGTDFTLTISSLQPEDFATYYCQQGRRSPFTFGQGTKVEIKRTVA
**Q.** B4 was tested. Which enhancement of EC50, HEK-Blue IL-2 reporter, with FAP-expressing cells [9] did it give?
**A.** The enhancement of EC50, HEK-Blue IL-2 reporter, with FAP-expressing cells was under 200 fold.

B5: immunoconjugate of configuration 3 with IL-2 polypeptide, D002 Fab and 872-5 scFv (Fc fusion, part only; not given: CH1, Fc subunits, linkers, part only)
chain, part: EVQLVESGGGLVQPGGSLRLSCAASGFTFRGYIMSWVRQAPGKGLEWVSWISPEGSRTGYADSVKGRFTISRDNSKNTLYLQMNSLRAEDTAVYYCARLQYGTWFDYWGQGTLVTVSSDIQMTQSPSSLSASVGDRVTITCRASQSISSYLNWYQQKPGKAPKLLIYAASSLQSGVPSRFSGSGSGTDFTLTISSLQPEDFATYYCQQATLLLPTFGQGTKVEIKRTVAPASSSTKKTQLQLEHLLLDLQMILNGINNYKNPKLTRMLTAKFAMPKKATELKHLQCLEEELKPLEEVLNGAQSKNFHLRPRDLISNINVIVLELKGSETTFMCEYADETATIVEFLNRWITFSQSIISTLT
heavy, part: B4 heavy, part
light, part: B4 light, part
**Q.** How did the enhancement of EC50, HEK-Blue IL-2 reporter, with FAP-expressing cells [9] turn out when B5 was run?
**A.** Its enhancement of EC50, HEK-Blue IL-2 reporter, with FAP-expressing cells is under 200 fold.

B6: D029 HV2LV3 (bispecific antibody, V domains shown)
VH: EVQLVESGGGLVQPGGSLRLSCAASGFTFTWFFMSWVRQAPGKGLEWVSWIGPSGLYTDYADSVKGRFTISRDNSKNTLYLQMNSLRAEDTAVYYCARSQYGRYYSPDYYFDYWGQGTLVTVSS
VL: DIQMTQSPSSLSASVGDRVTITCRASGALGFYLNWYQQKPGKAPKLLIYAASSLSSGVPSRFSGSGSGTDFTLTISSLQPEDFATYYCQQGRTPPFTFGQGTKVEIKR
notes: also called Rev1-Q27G:L96F/S55L:S32F; two-in-one antibody within FB-675
**Q.** What does the source list for B6?
**A.** EC50 of HEK-Blue IL2 assay (pM) with HEK 293T; variant as masking moiety of a configuration 3 immunoconjugate [10]: 5300 pM; EC50 of HEK-Blue IL2 assay (pM) with HEK 293T-hFAP-E5; variant as masking moiety of a configuration 3 immunoconjugate [11]: 31 pM; Kd [12]: 3.7 nM; Kd [13]: 217 nM; Kd [14]: 217 nM; Kd [15]: ~3.66 nM; Kd [16]: 3.66 nM

B7: anti-FAP antibody 872-59 (antibody, V domains shown)
VH: EVQLVESGGGLVQPGGSLRLSCAASGFTFTSYAMSWVRQAPGKGLEWVSSIYSWYGTTSYADSVKGRFTISRDNSKNTLYLQMNSLRAEDTAVYYCARTISYSQYAYGYSFDYWGQGTLVTVSS
VL: B1 VL with T92F, L93T, L94S, L95P, P96R
notes: also called IgG 59; FAP59
**Q.** B7 was tested. Which Kd [3] did it give?
**A.** The Kd was 16 nM.

**Q.** What about the Kd [4] of the same molecule?
**A.** Its Kd is 15.5 nM.

**Q.** And the koff [4]?
**A.** Its koff is 0.0056 s⁻¹.

**Q.** What about the kon [4] of the same molecule?
**A.** The kon was 360000 M⁻¹ s⁻¹.

**Q.** Does B7 bind [5]?
**A.** Result: no binding

B8: two-in-one antibody B10 (bispecific antibody, V domains shown)
VH: EVQLVESGGGLVQPGGSLRLSCAASGFTFSRYSMGWVRQAPGKGLEWVSTIHSHGSGTRYADSVKGRFTISRDNSKNTLYLQMNSLRAEDTAVYYCARSQYGRYYSPDYYFDYWGQGTLVTVSS
VL: B6 VL with G27Q, A28N, L29I, G30A, F31R, S55Q, T93Y, P94S
**Q.** Does B8 bind [7]?
**A.** Result: binds

**Q.** Does B8 bind [17]?
**A.** Result: binds

B9: scFv70, scFv derived from antibody 872-70 (scFv, V domains shown)
VH: B8 VH with G35S, T50Y, H52T, H54T, G55D, S56G, G57T, R59D
VL: B1 VL with A91S, T92R, L93T, L94S, L95P, P96Y
notes: Single chain; also called scFv872-70
**Q.** With B9 as the molecule, how does the Kd [8] read?
**A.** The Kd was about 1 nM.

B10: anti-FAP antibody 872-70 (antibody, V domains shown)
VH: B8 VH with G35S, T50Y, H52T, H54T, G55D, S56G, G57T, R59D
VL: B1 VL with A91S, T92R, L93T, L94S, L95P, P96Y
notes: also called IgG 70; FAP70
**Q.** Which Kd [3] does the source give for B10 here?
**A.** The Kd was under 1 nM.

**Q.** What about the Kd [4] of the same molecule?
**A.** The Kd was under 1 nM.

**Q.** What about the kon [4] of the same molecule?
**A.** Its kon is 110000 M⁻¹ s⁻¹.

**Q.** Does B10 bind [5]?
**A.** Result: no binding

B11: D029 mutant Fab of FB-559 (D029HV1 with D029 VL) (bispecific antibody, V domains shown)
VH: B6 VH with F32S
VL: B6 VL with G27Q, A28D, L29G, F31N, A50G, S53T, S55Y, F96L
notes: The legend says only 'D029 mutant'
**Q.** Which Kd [18] does the source give for B11 here?
**A.** The Kd was about 400 nM.

B12: single domain anti-FAP antibody VHH6 (VHH)
VHH: EVQLVESGGGLVQPGGSLRLSCAASGFTFTPTYMYWVRQAPGKGLEWVSAIDPYGRTEYPDSVKGRFTISRDNAKNTLYLQMNSLRPEDTAVYYCAVRVPPGVYTYYRTGPYDYWGQGTLVTVSS
**Q.** Does B12 bind [19]?
**A.** Result: binds

**Q.** Does B12 bind [7]?
**A.** Result: binds

**Q.** Does B12 bind [5]?
**A.** Result: no binding
